Reference: patent US9957295B2, “Peptides inhibiting cold-inducible RNA binding protein activity” (The Feinstein Institute for Medical Research, priority 2013, dated 2018)

Tests used:
healthy rats = assay: Administration of recombinant CIRP to healthy rats; type: in vivo, rat
Description: (§1) As an index of the inflammatory cytokine cascade and the acute inflammatory response, supernatants from cells incubated with recombinant CIRP were measured for TNF-α and IL-6 levels in serum, tissue homogenates, and culture medium grown with macrophages using a commercially available enzyme-linked immunosorbent assay (ELISA) kits (BioSource International, Camarillo, Calif.) according to the manufacturer's instruction. To quantify TNF-α and IL-6 protein levels in serum and tissue, serum samples were harvested 4 h after hemorrhage, or 4 h after treatment with recombinant CIRP from animals by cardiac puncture at the time that the rats were sacrificed, and collected tissue samples, and carried out by the same method as above. HMGB1 levels were determined by Western blotting.
Serum concentrations of aspartate aminotransferase (AST), alanine aminotransferase (ALT), and lactate were determined by using assay kits according to the manufacturer's instructions (Pointe Scientific, Lincoln Park, Mich.).
Healthy rats were intravenously administered rmCIRP (1 mg/kg BW) or normal saline (vehicle). After the injection of rCIRP (1 mg/kg BW) or buffer solution (same volume), as control, serum levels of TNF-α increased markedly in the rCIRP group, about 5 fold higher than buffer (sham) group (FIG. 4A). […] RAW 264.7 cells were incubated with indicated concentrations of rmCIRP for 20 h. HMGB1 levels in conditioned medium (CM) were determined by Western blotting. Band intensities were quantified with densitometry. […] After 4 hours, blood and tissues were collected for analysis. […] Data are mean±s.e.m., n=6-9/group, *P<0.05 vs. vehicle.
In additional groups of normal healthy animals, rCIRP, for example rmCIRP (1 mg/kg BW) or buffer (same volume, 1 ml) were administered. At 4 h after the completion of treatment, blood samples were collected and placed on ice to allow clotting, and then were centrifuged at 1200 g for 10 min at 4° C., and the serum samples were stored at −80° C. until assayed. […]

RAW 264.7 cells = assay: Cytokine release from RAW 264.7 cells stimulated with recombinant CIRP; type: cell-based, murine; settings: for TNF-α release from RAW 264.7 cells (in words): 100 ng/ml, 4 h, or indicated concentrations and times
Description: Murine macrophage-like RAW 264.7 cells were obtained from ATCC (American Type Culture Collection, Manassas, Va.), and were grown in Dulbecco's Modified Eagle's Medium (DMEM, Life Technologies, Grand Island, N.Y.) containing 10% (vol/vol) FBS (heat-inactivated at 56° C. for 30 min), 100 U/ml penicillin, 100 μg/ml streptomycin and 2 mM glutamine. Cells were re-suspended in medium and incubated in 6 or 48-well tissue-culture plates overnight in a humidified incubator (37° C., 5% CO2). In the experiments, cell monolayers were stimulated with or without recombinant CIRP at various indicated concentrations and for various indicated times. The cell-free supernatants were assayed for TNF-α by ELISA or for HMGB1 by western blot analysis.
as §1
To address whether the extracellular CIRP could function as an inflammatory mediator, recombinant murine CIRP (rmCIRP) was expressed and purified using a bacterial expression system with more than 97% purity and confirmation by Western blotting (FIGS. 16A and B). […] J. Immunol. 174, 3306-3316 (2005); Henderson, B., et al. The extracellular signaling actions of molecular chaperones are not due to microbial contaminants. Cell Stress Chaperones 15, 123-141 (2010)). […]
In parallel experiments, cytokines in the supernatant of cultured RAW cells incubated with rCIRP were measured. […]

B1: rmCIRP: recombinant murine (rat sequence) His-tagged CIRP expressed in E. coli (protein)
chain: MASDEGKLFVGGLSFDTNEQALEQVFSKYGQISEVVVVKDRETQRSRGFGFVTFENIDDAKDAMMAMNGKSVDGRQIRVDQAGKSSDNRSRGYRGGSAGGRGFFRGGRSRGRGFSRGGGDRGYGGGRFESRSGGYGGSRDYYASRSQGGSYGYRSSGGSYRDSYDSYATHNEHHHHHH
In the case of B1, the “serum TNF-α versus buffer (sham) group” value (healthy rats; 1 mg/kg BW) is reported as “about 5 fold”, the “serum TNF-α, IL-6, HMGB1 levels and organ injury markers AST and ALT” value (healthy rats; 1 mg/kg BW intravenous, 4 hours, vs normal saline) is reported as “significantly increased” and the “serum levels of AST and ALT” value (healthy rats; 1 mg/kg BW, normal healthy rats) is reported as “significantly elevated”. For the same molecule, the “TNF-α release from RAW 264.7 cells (in words)” value (RAW 264.7 cells) was “increased TNF-α release in a dose- and time-dependent manner”, the “TNF-α release from RAW 264.7 cells (in words)” value (RAW 264.7 cells; listed as rCIRP) was “significantly increased TNF-α release” and the “increase of HMGB1 release from cultured RAW cells” value (RAW 264.7 cells; 500 ng/ml, 20 h incubation, Western blot) was “about 6 fold”.
